Target: T1, CG56972-ECD, recombinant human GPNMB extracellular domain (aa 23-480), GPNMB-V5His (human, UniProt Q14956 23-492)
T1 construct: Expressed in HEK293 cells; also called GPNMB-V5His immunogen; purified CG56972-ECD protein; not shown: The tag would matter only for the xV5 reagent, not for the anti-GPNMB antibodies
T1 sequence: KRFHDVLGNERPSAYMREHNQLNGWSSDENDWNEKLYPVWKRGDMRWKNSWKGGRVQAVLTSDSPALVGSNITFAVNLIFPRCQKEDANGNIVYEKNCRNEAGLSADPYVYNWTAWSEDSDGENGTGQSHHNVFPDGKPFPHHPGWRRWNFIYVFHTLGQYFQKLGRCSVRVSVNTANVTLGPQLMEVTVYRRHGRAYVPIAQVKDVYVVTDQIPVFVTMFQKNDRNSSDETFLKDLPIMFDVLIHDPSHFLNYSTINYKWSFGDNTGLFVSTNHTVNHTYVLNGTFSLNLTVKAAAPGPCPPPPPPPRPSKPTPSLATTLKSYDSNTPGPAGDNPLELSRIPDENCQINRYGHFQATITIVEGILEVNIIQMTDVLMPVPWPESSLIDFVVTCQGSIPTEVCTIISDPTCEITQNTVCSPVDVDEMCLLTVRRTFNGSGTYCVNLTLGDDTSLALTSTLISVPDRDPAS
Test: method not stated; purified CG56972-ECD protein

- Kd: 52 nM
B1: CR011, fully human monoclonal antibody Mab 1.15.1 (IgG2) (antibody, V domains shown)
VH: QVQLQESGPGLVKPSQTLSLTCTVSGGSISSFNYYWSWIRHHPGKGLEWIGYIYYSGSTYSNPSLKSRVTISVDTSKNQFSLTLSSVTAADTAVYYCARGYNWNYFDYWGQGTLVTVSS
VL: not shown
notes: The unconjugated IgG2 form was used in flow cytometry; also called CR011 (anti-GPNMB)

Source: patent publication US20180043014A1 (CELLDEX THERAPEUTICS, published 2018)
